The values below come from patent US6872703B2, “Insulin receptor-related receptor binding protein” (Ajinomoto Co., Inc., priority 2000, dated 2005).

For assay [1], the target named is T1, insulin receptor-related receptor (IRR), IRR-Fc fusion protein (extracellular region of mouse IRR) (Mus musculus, UniProt Q9WTL4).
T1 construct: with an extracellular region of mouse IRR (1-920th residues); made in house; host or cells: CHO cells
T1 sequence (Q9WTL4 27-920): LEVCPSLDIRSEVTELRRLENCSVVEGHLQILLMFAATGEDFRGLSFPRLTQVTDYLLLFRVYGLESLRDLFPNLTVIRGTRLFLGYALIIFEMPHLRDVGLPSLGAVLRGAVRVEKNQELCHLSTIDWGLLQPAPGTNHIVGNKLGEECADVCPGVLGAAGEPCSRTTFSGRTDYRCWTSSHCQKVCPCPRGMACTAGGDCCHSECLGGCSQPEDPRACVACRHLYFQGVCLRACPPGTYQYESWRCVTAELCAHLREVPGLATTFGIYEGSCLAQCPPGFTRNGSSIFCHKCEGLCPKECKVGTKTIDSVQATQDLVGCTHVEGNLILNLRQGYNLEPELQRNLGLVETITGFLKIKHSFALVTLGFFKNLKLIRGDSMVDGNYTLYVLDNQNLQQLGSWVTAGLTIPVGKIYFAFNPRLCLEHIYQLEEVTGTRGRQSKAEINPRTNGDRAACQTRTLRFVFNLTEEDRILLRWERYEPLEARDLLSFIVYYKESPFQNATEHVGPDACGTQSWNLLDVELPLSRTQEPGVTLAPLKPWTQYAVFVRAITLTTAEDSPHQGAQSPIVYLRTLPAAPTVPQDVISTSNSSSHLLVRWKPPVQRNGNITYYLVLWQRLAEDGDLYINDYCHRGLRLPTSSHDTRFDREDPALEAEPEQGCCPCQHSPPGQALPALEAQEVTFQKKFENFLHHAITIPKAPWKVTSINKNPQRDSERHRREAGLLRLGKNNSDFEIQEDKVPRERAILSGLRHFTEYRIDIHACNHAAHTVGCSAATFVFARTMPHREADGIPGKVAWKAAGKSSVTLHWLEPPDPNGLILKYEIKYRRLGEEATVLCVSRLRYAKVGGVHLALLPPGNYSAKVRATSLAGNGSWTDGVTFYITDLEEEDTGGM
Put plainly: IRR binding activity by surface plasmon resonance (BIACORE 2000), IRR-Fc binding value minus IR-Fc binding value. The settings on record: about 1/10 amount of each re-purified specimen (about 10 μg) lyophilized and dissolved in 200 μl of buffer; IR-Fc binding value subtracted from IRR-Fc binding value. The text has this:
Determination of active fractions in the purification of the IRR ligand from a supernatant of cells expressing the IRR ligand including the rat C6 glioma cells or identification of granulins/epithelins or mutants thereof as IRR ligands can be carried out by measuring activity for binding to IRR in a sample. The binding activity to IRR of a sample specimen can be measured by using a surface plasmon resonance (SPR) measuring apparatus, for example, BIACORE (produced by Biacore). Specifically, for example, the extracellular domain of IRR is prepared as a soluble protein and immobilized on a surface of a BIACORE sensor chip. A sample specimen is sent onto the surface of the sensor chip via a micro flow system at a constant flow rate. If a molecule binding to IRR (IRR ligand) is contained in the sample specimen, the mass of the surface sensor chip is increased due to binding between IRR and IRR ligand molecules, and a shift of the SPR signal in proportion to the binding quantity can be detected as a change in the resonance unit (RU). […] When, for example, an insulin receptor (IR) protein is used as a protein other than IRR, IRR-binding activity can be measured more precisely. […]

The next assay has as its target IRR (Homo sapiens, UniProt P14616). The settings on record: literature report; cited from earlier work.

Sequence of IRR (P14616 27-742 limits assumed, species assumed): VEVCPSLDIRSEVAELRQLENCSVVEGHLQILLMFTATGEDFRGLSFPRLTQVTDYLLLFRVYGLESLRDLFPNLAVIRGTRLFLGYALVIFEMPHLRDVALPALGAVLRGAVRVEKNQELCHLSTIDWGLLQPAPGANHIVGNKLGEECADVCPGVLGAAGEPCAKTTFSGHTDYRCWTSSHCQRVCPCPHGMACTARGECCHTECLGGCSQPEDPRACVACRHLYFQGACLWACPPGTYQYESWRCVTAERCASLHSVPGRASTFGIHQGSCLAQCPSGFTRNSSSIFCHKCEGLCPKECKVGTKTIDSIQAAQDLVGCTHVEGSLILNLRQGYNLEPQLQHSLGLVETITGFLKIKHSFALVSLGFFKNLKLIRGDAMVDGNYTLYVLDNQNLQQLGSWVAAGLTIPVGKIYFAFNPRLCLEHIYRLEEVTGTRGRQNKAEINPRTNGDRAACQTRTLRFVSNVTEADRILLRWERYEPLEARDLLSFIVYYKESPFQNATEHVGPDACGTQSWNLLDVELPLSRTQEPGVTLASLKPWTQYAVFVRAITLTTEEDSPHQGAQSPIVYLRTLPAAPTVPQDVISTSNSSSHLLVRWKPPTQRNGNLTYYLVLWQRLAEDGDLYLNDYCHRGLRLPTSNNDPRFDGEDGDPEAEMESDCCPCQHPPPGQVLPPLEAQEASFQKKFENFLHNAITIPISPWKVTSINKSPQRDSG
Sequence of IRR (P14616 747-1297 limits assumed, species assumed): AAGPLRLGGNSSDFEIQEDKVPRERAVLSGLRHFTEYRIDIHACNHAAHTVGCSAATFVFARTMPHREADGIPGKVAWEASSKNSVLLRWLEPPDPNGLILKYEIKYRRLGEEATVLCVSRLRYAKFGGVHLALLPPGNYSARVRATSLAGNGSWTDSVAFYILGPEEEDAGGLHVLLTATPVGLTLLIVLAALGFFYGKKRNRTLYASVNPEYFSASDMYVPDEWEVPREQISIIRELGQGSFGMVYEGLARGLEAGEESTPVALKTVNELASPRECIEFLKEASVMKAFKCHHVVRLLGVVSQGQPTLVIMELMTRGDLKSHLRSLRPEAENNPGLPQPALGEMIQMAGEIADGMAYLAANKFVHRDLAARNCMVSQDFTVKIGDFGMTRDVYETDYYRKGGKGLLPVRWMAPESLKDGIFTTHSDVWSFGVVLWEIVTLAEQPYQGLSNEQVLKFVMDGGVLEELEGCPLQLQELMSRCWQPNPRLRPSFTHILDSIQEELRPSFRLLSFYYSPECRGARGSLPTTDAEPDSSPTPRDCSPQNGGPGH

With “Peak 2: Re-purified IRR ligand fraction from rat C6 cell supernatant; protein of molecular weight 6135, SEQ ID NO: 4 (epithelin/granulin) (IGCDQHTSCPVGQTCCPSLKGSWACCQLPHAVCCEDRQHCCPAGYTCNVKARTCEKQ; listed as Mus musculus)”, the “binding activity (IRR-specific binding value, SPR resonance units)” value in assay [1] is reported as 21 RU.

Take insulin: the “binding to IRR” value in the assay with IRR was “cannot bind to IRR”.

Turning to “insulin-like growth factor (IGF)-1 [IGF-1]”, the “binding to IRR” value with IRR is on record as “cannot bind to IRR”.

B1: Peak 1: Re-purified IRR ligand fraction from rat C6 cell supernatant; proteins of molecular weights 6250 and 6321, SEQ ID NOS: 5 and 6 (epithelin/granulin) (protein, listed as Mus musculus)
chain 1: DIGCDQHTSCPVGQTCCPSLKGSWACCQLPHAVCCEDRQHCCPAGYTCNVKARTCEKN
chain 2: DIGCDQHTSCPVGQTCCPSLKGSWACCQLPHAVCCEDTQHCCPAGYTCNVKARTCEKDA
Regarding B1, in assay [1], the “binding activity (IRR-specific binding value, SPR resonance units)” value amounted to 13 RU.
